Test results published in patent US20190382503A1 (published 2019).

Experiments:
human CD137 on cells = target: T1, human CD137 on cells (human, UniProt Q07011 24-255); assay: flow cytometry, MFI of the CD137 positive CD8 T cells
T1 construct: Human CD137 on CHO-K1 transfectants, Jurkat/CD137 reporter cells or CD3-stimulated primary human CD8 T cells; cells named under assay; also called 4-1BB; TNFRSF9
Procedure: (§1) FACS staining and analysis of CD8 T cells: Following 48 h of incubation with or without CD3, human and cynomolgus PBMC were harvested, pooled, recounted and diluted in FACS buffer (PBS+0.5% BSA, 0.05% NaN₃) to a concentration of 5×10⁶ cells/mL. 50 μL (0.25×10⁶ cells) of cell solution was added to a 96-well FACS staining plate (Falcon #351190). Following 10 min of Fc-blocking in RT using Beriglobin (hIgG, 200 μg/mL), cells were washed in FACS buffer and then incubated for 1 h in 4° C. with 100 μL of the biotinylated ALG.APV-210 or negative control. […] Cells were analysed for ALG.APV-210 binding using flow cytometry by gating on viable, single cells expressing CD3 and CD8. MFI values (FMO subtracted) from 2 independent experiments as well as normalized pooled data from 2 experiments and EC₅₀-values were determined and plotted using GraphPad Prism 7, non-linear regression log (agonist) vs. normalized response-variable slope, n=6 donors/group.
(§2) ALG.APV-210 binding was also assessed by looking at the percentage of CD8 T cells bound by ALG.APV-210. […] The binding EC₅₀ values were also calculated on the MFI of the CD137 positive cells, and the results was an EC₅₀ of 0.17 nM for binding to human CD137 and 0.20 nM for cynomolgus monkey CD137.

[1] = target: T2, cynomolgus CD137 on cells (cynomolgus macaque, UniProt A9YYE7 24-254); assay: as above
T2 construct: whole, on cells; also called CHO-K1/cynomolgus CD137; cynomolgus monkey CD137
Procedure: as §1, §2

T2 sequence (A9YYE7 entry or part of it): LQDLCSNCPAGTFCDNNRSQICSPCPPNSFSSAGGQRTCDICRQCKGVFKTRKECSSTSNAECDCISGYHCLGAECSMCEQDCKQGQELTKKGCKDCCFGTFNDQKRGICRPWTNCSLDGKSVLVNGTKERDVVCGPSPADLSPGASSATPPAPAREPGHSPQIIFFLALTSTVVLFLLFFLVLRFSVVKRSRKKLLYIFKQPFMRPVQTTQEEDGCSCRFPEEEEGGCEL
T1 sequence (Q07011 24-255 limits assumed): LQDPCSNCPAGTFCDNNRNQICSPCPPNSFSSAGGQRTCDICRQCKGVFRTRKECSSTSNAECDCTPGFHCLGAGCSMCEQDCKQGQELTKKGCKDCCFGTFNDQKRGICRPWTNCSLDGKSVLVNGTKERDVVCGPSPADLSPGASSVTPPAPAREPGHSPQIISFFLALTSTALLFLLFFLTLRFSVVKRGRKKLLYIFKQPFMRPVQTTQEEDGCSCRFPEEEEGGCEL

B1: biotinylated ALG.APV-210 (bispecific antibody)
chain: EVQLLESGGGLVQPGGSLRLSCAASGFTFSHGSMYWVRQAPGKGLEWVSSISSGSGSTYYADSVKGRFTISHDNSKNTLYLQMNSLRAEDTAVYYCARSSYYGSYYSIDYWGQGTLVTVSSGGGGSGGGGSGGGGSGGGGSDIQMTQSPSSLSASVGDRVTITCRASQSISSYLNWYQQKPGKAPKLLIYAASSLQSGVPSRFSGSGSGTDFTLTISSLQPEDFATYYCQQYYDNLPTFGQGTKLEIKEPKSSDKTHTCPPCPAPEAAGAPSVFLFPPKPKDTLMISRTPEVTCVVVDVSHEDPEVKFNWYVDGVEVHNAKTKPREEQYNSTYRVVSVLTVLHQDWLNGKEYKCAVSNKALPAPIEKTISKAKGQPREPQVYTLPPSRDELTKNQVSLTCLVKGFYPSDIAVEWESNGQPENNYKTTPPVLDSDGSFFLYSKLTVDKSRWQQGNVFSCSVMHEALHNHYTQKSLSLSPGSGGGGSGGGGSGGGGSPSEVQLLESGGGLVQPGGSLRLSCAASGFTFSSYAMSWVRQAPGKCLEWVSAISGSGGSTYYADSVKGRFTISRDNSKNTLYLQMNSLRAEDTAVYYCARYYGGYYSAWMDYWGQGTLVTVSSGGGGSGGGGSGGGGSGGGGSDIQMTQSPSSLSASVGDRVTITCRASQSISSFLNWYQQKPGKAPKLLIYAASSLQSGVPSRFSGSGSGTDFTLTISSLQPEDSATYYCQQTYGYLHTFGCGTKLEIKR
modifications: biotinylated (sites not given)
EC50 (human CD137 on cells): 0.17 nM | EC50 [1]: 0.2 nM
